Laboratory results from US20220259593A1, “CONTROL OF MAMMALIAN GENE DOSAGE USING CRISPR” (The Regents of the University of California, priority 2019, published 2022).
Positions count from the first letter of the chain named.

B1: cr912 (nucleic acid)
guide: GTTTAAGAGCTAAGCTGGAAACAGCATAGCAAGCTTAAATGAGGCTAGTCCGGTATCAACTTGAAAAAGTGGCACCGAGTCGGTGCT
modifications: listed as DNA, chemistry not fully specified
B2: cr053 (nucleic acid)
guide: B1 guide with T2A, A5C, C34T, G41A, G53T
modifications: listed as DNA, chemistry not fully specified
B3: cr034 (nucleic acid)
guide: B1 guide with T2C, T3A, C34T, G41A, G53T
modifications: listed as DNA, chemistry not fully specified
B4: cr515 (nucleic acid)
guide: B1 guide with G18T, C34T, G41A, G53T
modifications: listed as DNA, chemistry not fully specified
B5: cr661 (nucleic acid)
guide: B1 guide with G29A, C34T, G41A, G52C, G53T, A66T
modifications: listed as DNA, chemistry not fully specified
B6: cr828 (nucleic acid)
guide: B1 guide with A32G, C34T, G41A, G53T
modifications: listed as DNA, chemistry not fully specified
B7: cr921 (nucleic acid)
guide: B1 guide with G33A, C34G, G41A, G53T
modifications: listed as DNA, chemistry not fully specified
B8: cr686 (nucleic acid)
guide: B1 guide with G33C, C34T, G41A, G53T, T80A
modifications: listed as DNA, chemistry not fully specified
B9: cr535 (nucleic acid)
guide: B1 guide with C34T, G41A, C51A, G53T
modifications: listed as DNA, chemistry not fully specified
B10: cr802 (nucleic acid)
guide: B1 guide with C34T, G41A, G43C, C51G, G53T, C60G, G69C, C75G, G83C
modifications: listed as DNA, chemistry not fully specified
B11: cr784 (nucleic acid)
guide: B1 guide with C34T, G41A, G43T, G44C, C50T, G53T
modifications: listed as DNA, chemistry not fully specified
B12: cr847 (nucleic acid)
guide: B1 guide with G41A, G53T, G77C, C81G
modifications: listed as DNA, chemistry not fully specified
B13: cr179 (nucleic acid)
guide: B1 guide with C34G, G41A, G53T, C76T, G82A
modifications: listed as DNA, chemistry not fully specified
B14: cr583 (nucleic acid)
guide: B1 guide with C34T, G41C, G52A, G53T, A58T
modifications: listed as DNA, chemistry not fully specified
B15: cr817 (nucleic acid)
guide: B1 guide with C34G, G41A, A42G, G53T, A65T
modifications: listed as DNA, chemistry not fully specified
B16: cr942 (nucleic acid)
guide: B1 guide with C34T, G41A, G53T, T56C, A66C
modifications: listed as DNA, chemistry not fully specified
B17: cr233 (nucleic acid)
guide: B1 guide with G33C, C34T, G41A, G53T, G77C, C81G
modifications: listed as DNA, chemistry not fully specified
B18: cr383 (nucleic acid)
guide: B1 guide with G33C, C34T, G41A, G53T, G77T, C81A
modifications: listed as DNA, chemistry not fully specified
B19: cr235 (nucleic acid)
guide: B1 guide with C34T, G41A, G53T, T61A, A65G, A68T
modifications: listed as DNA, chemistry not fully specified
B20: cr629 (nucleic acid)
guide: B1 guide with G33C, C34T, G41A, G53T, C60A, G69T
modifications: listed as DNA, chemistry not fully specified
B21: cr039 (nucleic acid)
guide: B1 guide with T2A, A6T, C34T, G41A, G53T
modifications: listed as DNA, chemistry not fully specified
B22: cr122 (nucleic acid)
guide: B1 guide with G33C, C34T, G41A, G53T, C57T, A65T
modifications: listed as DNA, chemistry not fully specified
B23: cr036 (nucleic acid)
guide: B1 guide with T2C, T4A, C34T, G41A, G53T
modifications: listed as DNA, chemistry not fully specified
B24: cr579 (nucleic acid)
guide: B1 guide with C34T, G41A, G52C, G53A
modifications: listed as DNA, chemistry not fully specified
B25: cr637 (nucleic acid)
guide: B1 guide with G29T, C34A, G41A, G53T, A65G
modifications: listed as DNA, chemistry not fully specified
B26: cr564 (nucleic acid)
guide: B1 guide with C34G, G41A, G53T, C75G, G83C
modifications: listed as DNA, chemistry not fully specified
B27: cr431 (nucleic acid)
guide: B1 guide with C34G, G41A, G53T, A65G, A78C
modifications: listed as DNA, chemistry not fully specified
B28: cr056 (nucleic acid)
guide: B1 guide with T3G, A5C, C34T, G41A, G53T
modifications: listed as DNA, chemistry not fully specified
B29: cr673 (nucleic acid)
guide: B1 guide with G33C, C34T, G41A, G53T, A78T
modifications: listed as DNA, chemistry not fully specified
B30: cr065 (nucleic acid)
guide: B1 guide with T3A, A6C, C34T, G41A, G53T
modifications: listed as DNA, chemistry not fully specified
B31: cr178 (nucleic acid)
guide: B1 guide with G33T, C34T, G53T, A58G
modifications: listed as DNA, chemistry not fully specified
B32: cr329 (nucleic acid)
guide: B1 guide with G33C, C34T, G41A, G43A, C51T, G53T
modifications: listed as DNA, chemistry not fully specified
B33: cr058 (nucleic acid)
guide: B1 guide with T4G, A5C, C34T, G41A, G53T
modifications: listed as DNA, chemistry not fully specified
B34: cr894 (nucleic acid)
guide: B1 guide with G33C, C34T, G41A, G53T, C60T, G69A
modifications: listed as DNA, chemistry not fully specified
B35: cr882 (nucleic acid)
guide: B1 guide with C34T, G41A, G53T, G63C
modifications: listed as DNA, chemistry not fully specified
B36: cr033 (nucleic acid)
guide: B1 guide with T4A, G7A, C34T, G41A, G53T
modifications: listed as DNA, chemistry not fully specified
B37: cr595 (nucleic acid)
guide: B1 guide with C34T, G41A, G43C, G53T
modifications: listed as DNA, chemistry not fully specified
B38: cr751 (nucleic acid)
guide: B1 guide with A28C, G33C, C34T, G41A, G52T, G53T
modifications: listed as DNA, chemistry not fully specified
B39: cr589 (nucleic acid)
guide: B1 guide with C34T, G41A, G43T, C45A, G48T, C51A, G53T
modifications: listed as DNA, chemistry not fully specified
B40: cr326 (nucleic acid)
guide: B1 guide with G41A, G43C, C51G, G53T
modifications: listed as DNA, chemistry not fully specified
B41: cr135 (nucleic acid)
guide: B1 guide with C34T, G41A, G43C, C51G, G53T, C60A, G69T, A74G, T84C
modifications: listed as DNA, chemistry not fully specified

The molecules below were run on K562 CRISPRi cells (assay: Constant region variant library pooled growth screen, K562). Details: sgRNA constant region variants; activity relative to the original, un-modified constant region cr995.
Format: cell-based, human
Method in brief: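 Library of sgRNA constant-region variants, each paired with 36 targeting sequences (essential-gene and non-targeting), transduced in duplicate into K562 CRISPRi cells, puromycin-selected and grown 4–8 days at >2000× coverage. Activity per variant is its growth phenotype normalised to the same targeting sequence with unmodified constant region.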

First: B1
Second: B2
The Mean relative activity of the first is higher: −1.05E−05 for the first, −0.003704 for the second.

Compared with B3, B4 is higher in Mean relative activity: −0.007191 for the first, 1.027 for the second.

Compared with B5, B6 is higher in Mean relative activity: −0.01151 for the first, 1.028 for the second.

First: B7
Second: B8
The Mean relative activity of the first is higher: −0.002203 for the first, −0.004019 for the second.

Compared with B9, B10 is lower in Mean relative activity: −0.0004281 for the first, −0.005377 for the second.

Compared with B11, B12 is higher in Mean relative activity: −0.01213 for the first, −0.002682 for the second.

Compared with B13, B14 is lower in Mean relative activity: −0.004493 for the first, −0.01013 for the second.

Going from B15 to B16, the Mean relative activity rises from −0.002514 to 1.087.

Compared with B17, B18 is lower in Mean relative activity: −0.003511 for the first, −0.005505 for the second.

Going from B19 to B20, the Mean relative activity falls from 1.027 to −5.97E−5.

First: B21
Second: B22
The Mean relative activity of the first is higher: −0.0006181 for the first, −0.003408 for the second.

Compared with B23, B24 is higher in Mean relative activity: −0.005679 for the first, −0.000418 for the second.

First: B25
Second: B26
The Mean relative activity of the first is higher: −0.001265 for the first, −0.001952 for the second.

Compared with B27, B28 is lower in Mean relative activity: −0.0002713 for the first, −0.009512 for the second.

First: B29
Second: B30
The Mean relative activity of the first is lower: −0.005072 for the first, −0.003148 for the second.

Going from B31 to B32, the Mean relative activity falls from −0.0008744 to −0.007607.

First: B33
Second: B34
The Mean relative activity of the first is higher: −0.003151 for the first, −0.003408 for the second.

Going from B35 to B36, the Mean relative activity falls from 1.027 to −0.004656.

First: B37
Second: B38
The Mean relative activity of the first is lower: −0.002984 for the first, −0.000557 for the second.

First: B39
Second: B40
The Mean relative activity of the first is lower: −0.005108 for the first, −0.001062 for the second.

B41 was tested, and the Mean relative activity was −0.00878.
